Test results from US20030027246A1, “Immunogenic peptides derived from prostate-specific membrane antigen (PSMA) and uses thereof” (priority 2000, published 2003).
Marks after values point to notes of the source that are not given here.

Columns and labels:
[1] = target: T1, HLA-A0201 molecules on T2 cells (Homo sapiens, UniProt P04439, D140Y/D185E/D98H/E176V/E277Q/G131W/G231S/I119V/I121R/I166T/I218V/L300P/L318F/N151K/N90K/P208A/P217A/Q86G/Q94H/R138H/R169H/T345S); experiment: HLA-A0201 binding/stabilization of PSMA derived peptides on T2 cells (BB7.2 flow cytometry); format: cell-based; conditions: for Fluorescence Index (FI): T2 cells; for HLA-A0201 binding as judged by Fluorescence Index (FI) values: membrane-bound HLA-A0201 on T2 cells, result in words
T1 construct: endogenous in cells; host or cells: T2 cell line (Dr. Peter Creswell, Yale University)
Method: The ability of the PSMA derived peptides described in Table 1 to stabilize membrane-bound HLA-A0201 molecule was assessed utilizing the T2 cell line (Dr. Peter Creswell, Yale University). The cell line has been well documented to have a defective TAP (i.e. Transporter for Antigen Processing) transporter function. […] The stability of the surface HLA-A0201 molecules can be restored upon interaction with suitable exogenous peptides. The stabilization of the conformation of the class 1 MHC molecules is accompanied by the formation of an immunodominant epitope recognized by a mouse monoclonal antibody (designated BB7.2; American Type Culture Collection (ATCC)). Thus, the detection of this specific epitope is indicative of stable membrane-bound HLA-A0201 molecules loaded with peptide.
T2 cells were propagated in Iscove's complete medium (Iscove's medium supplemented with 10% heat-inactivated bovine serum, 120.0 units per ml of penicillin G sodium, 120 μg per ml of streptomycin sulphate, and 0.35 mg per ml of L-glutamine). The ability of PSMA peptides (Table 1) to bind and stabilize surface HLA-A0201 molecules on T2 cells was determined utilizing a protocol documented in the art (Deng, Y. (1997) J Immunol 158:1507-1515). In essence, 0.5×10^6 T2 cells were incubated with 125.0 μM of the test peptide in 200.0 μl of serum-free culture medium (Iscove's medium supplemented with 120.0 units per ml of penicillin G sodium, 120.0 μg per ml of streptomycin sulphate and 0.35 mg per ml of L-glutamine) overnight at 37° C. Subsequently, cells were washed twice with Iscove's medium (without bovine serum) to remove free PSMA peptide. To the cell pellet was added 1.0 ml of complete Iscove's medium (supplemented with fetal bovine serum (10% final)) containing 5.0 μg per ml of brefeldin A (Sigma), 12.5 μg per ml of anisomycin (Sigma) and 5.0 μg per ml of cyclohexamide (Sigma). […] The cells were subsequently incubated 30 min on ice prior to two washes with ice-cold PBA (phosphate buffered saline (pH 7.2) containing 2.0% bovine serum). 100.0 μl of PBA containing 5.0 μg of monoclonal antibody BB7.2 was added to each test sample. The reaction was allowed to proceed on ice for 45 min. Cells were then washed three times with ice-cold PBA. The binding of BB7.2 was detected via the addition of 100.0 μl of PBA containing 1.0 μg of goat anti-mouse IgG-Fc fluorescein (FITC) conjugate (BETHYL Laboratories Inc.). After a 30 min incubation on ice, cells were twice washed with ice-cold PBA, and twice with ice-cold PBS (pH 7.2). Cells were immediately fixed by the addition of 50.0 μl of 1.0% paraformaldehyde. Samples were analyzed by Flow Cytometry. Results were expressed in units of Fluorescence Index (FI), calculated by the equation: [formula]
An FI value of 0.5 or greater was deemed to be significant.

A2Kb transgenic mouse = experiment: Immunogenicity of PSMA derived peptides in A2Kb transgenic mice (51Cr-release CTL assay); format: in vivo; conditions: 100.0 μg peptide + I-Ab-restricted peptide in IFA s.c.; splenocytes re-stimulated 6-7 days; 4 hr 51Cr-release vs peptide-pulsed P815-A2Kb targets
Method: The A2Kb transgenic mouse was used to assess the immunogenicity of the HLA-A0201 binding PSMA peptides. Mice of the B1O background (transgenic for the A2Kb chimeric gene) were purchased from the Scripps Clinic in California, USA. Mice were injected subcutaneously at the base of the tail with a dose of inoculum prepared by emulsifying 100.0 μg of the test peptide and 100.0 μg of an I-A^b-restricted peptide (described in Milich, D. R. et al. (1987) J. Immunol 139: 1223-1231) in incomplete Freund's adjuvant (IFA). Spleens of the experimental animals were collected on the 10th or 11th day post immunization. Spleenocytes of the experimental mice were prepared and cultured to enrich for CTLs before being assessed for effector activity. In vitro re-stimulation of the in vivo generated CTLs was performed by co-culturing in a 25 cm^2 tissue culture flask 3×10^7 responder cells (i.e. spleenocytes) with 1.3×10^7 irradiated autologous LPS (lipopolysaccharide)-blasts which had been pulsed with the respective peptide (100.0 μg per 10^8 cells). Cultures were kept in a 37° C., humidified CO2 incubator for 6-7 days before being tested for effector function in a standard 4 hr in vitro ^51Cr-release CTL assay as follows. […] Supernatant aliquots were then removed and counted for radioactivity.

[2] = 125.0 μM test peptide, overnight at 37° C., then 3.0 hr de-stabilization step, FI of 0.5 or greater deemed significant

Sequence | Fluorescence Index (FI) [1, 2] | HLA-A0201 binding as judged by Fluorescence Index (FI) values [1] | also measured
VLRMMNDQL [CLP-335] | 0.3 | – | –
MMNDQLMFL [CLP-336] | – | demonstrated HLA-A0201 binding | Immunogenicity: epitope-specific CTL responses (FIG. 1) (A2Kb transgenic mouse): immunogenic and capable of eliciting epitope-specific CTL responses
NLNGAGDPL [CLP-331] | 0 | – | –
LDSVELAHY (CLP324) [CLP-324, reference compound] | – | does not exhibit binding | Fluorescence Index (FI) ([1]; 125.0 μM peptide, analysis did not include 3 hr de-stabilization step): 0**
NMKAFLDEL [CLP-329] | 0 | – | –
WLCAGALVL (CLP327) [CLP-327, PSMA derived peptide, amino acid position 20-28] | 0 | – | –
VLAGGFFLL (CLP328) [CLP-328, PSMA derived peptide, amino acid position 27-35] | 1.3 | demonstrated HLA-A0201 binding | –
ELAHYDVLL (CLP330) [CLP-330, PSMA derived peptide, amino acid position 109-117] | 0.7 | demonstrated HLA-A0201 binding | –
PMFKYHLTV [CLP-334] | 0 | – | –
ALFDIESKV (CLP337) [CLP-337, PSMA derived peptide, amino acid position 711-719] | – | – | Immunogenicity: epitope-specific CTL responses (FIG. 1) (A2Kb transgenic mouse): immunogenic and capable of eliciting epitope-specific CTL responses
LMYSLVHNL [CLP-333] | – | demonstrated HLA-A0201 binding | –
LLHETDSAV [CLP-326] | – | demonstrated HLA-A0201 binding | –
